In patent publication US20240067932A1, “METHODS AND COMPOSITIONS FOR GENERATING HEMOGENIC ENDOTHELIAL CELLS FROM PLURIPOTENT STEM CELLS” (Trailhead Biosystems Inc., priority 2022, published 2024):

How the values were obtained:
[1] = tested on: early mesoderm progenitors; assay: Factor criticality / dynamic profile analysis of gene expression on removal of a finalized effector; type: cell-based, human; design: expression level of GATA2 / expression level of TAL1 / expression level of CD44 / expression level of KDR / expression level of CD34 / expression level of CD31: unit not given here
[2] = tested on: early mesoderm progenitors; assay: 8-factor HD-DoE experiments optimized for maximum GATA2 expression (qPCR, partial least squares models); type: cell-based, human; settings: fifth model, FIG. 6; factors VPA, SCF, BMP4, EFG, FLT3L, Arginine, Retinoic Acid, VEGF
[3] = model FIG. 11, named factor removed

B1: BMP4: BMP pathway agonist (protein, UniProt P12644 293-408, looked up)
Bone morphogenetic protein 4: SPKHHSQRARKKNKNCRRHSLYVDFSDVGWNDWIVAPPGYQAFYCHGDCPFPLADHLNSTNHAIVQTLVNSVNSSIPKACCVPTELSAISMLYLDEYDKVVLKNYQEMVVEGCGCR
expression level of GATA2 ([1]; model FIG. 11 (Retinoic Acid, BMP4, VEGF), factor present): 519
expression level of CD31 ([1]; model FIG. 11, factor present): 768
expression level of CD34 ([1]; model FIG. 11, factor present): 3971
expression level of FLI1 (Fill [sic]) ([1]; model FIG. 11, factor present): 3250
expression level of KDR ([1]; model FIG. 11, factor present): 17667
expression level of TAL1 ([1]; model FIG. 11, factor present): 490
expression level of CD31 [1, 3]: 682
expression level of CD34 [1, 3]: 3455
expression level of FLI1 (Fill [sic]) [1, 3]: 2213
expression level of GATA2 [1, 3]: 338
expression level of KDR [1, 3]: 10025
expression level of TAL1 [1, 3]: 422
factor contribution (maximum expression of GATA2) [2]: 31
